Test results published in the supplement of paper PMC9170038.

Tested on: MS2 coat protein
Experiment: apparent KD of MS2 coat protein; designed switch direction (-1 OFF switch, 1 ON switch): -1; higher = weaker reporter binding
How it was run: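 The reported apparent KD is a per-design median over clusters, from curve fits of normalised cluster fluorescence. Protein titrations used SNAP-549-labelled MS2 coat protein, doubled from 0.7 or 1.5 nM to 3 µM, in Tris-HCl pH 7.5 buffer with KCl, MgCl2, BSA, DTT, tRNA and Tween-20, with no input, 200 uM small-molecule ligand, or an oligonucleotide input. The RNA switches were transcribed on Illumina chips by stalled E. coli RNA polymerase.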

[1] = input ligand: microRNA oligo, concentration not stated
[2] = Eterna round: R95, input ligand: FMN 200 uM
[3] = Eterna round: R95, input ligand: microRNA oligo, concentration not stated
[4] = Eterna round: R95, input ligand: none

Sequence | apparent KD of MS2 coat protein (input ligand: FMN 200 uM) [nM] | apparent KD of MS2 coat protein [1] [nM] | apparent KD of MS2 coat protein (input ligand: none) [nM] | apparent KD of MS2 coat protein [2] [nM] | apparent KD of MS2 coat protein [3] [nM] | apparent KD of MS2 coat protein [4] [nM]
GGAACGGCGAACAAGGCCCACAUGAGGAUCACCCAUGUGGCUGGGUGAUCUCGCUCGUCUUAUAUAUGGCUGGACCG [salish99-s2-off-006] (Eterna round: R96, puzzle: Sensor v2, turn-off variant) | 146 | 23.8 | 104 |  |  | 
GGAAGGAAGGAACAAGUUAACAUGAGGAUCACCCAUGUUGACUUCAUGUGCACGCAAAGCGUGCAAGCUCGUCUUAU [AK-miRNA-r3-16] (Eterna round: R97, puzzle: Sensor, turn-off variant 1) | 18.3 |  | 17.3 |  |  | 
GGAAGGUCAGGAUAUGCGAGGGAGUGGGAAGUAGCAUGGUAGCAGAAGGGACAUGAGGAUCACCCAUGUUAGGA [JR_Exclu4_Sub0102] (puzzle: Exclusion 4) |  |  |  | 35.2 | 28.7 | 40.7
GGAAUACAUGAGGAUCACCCAUGUAAGGAUAUGCUGAUUAACACGGAAUAAUUAUGCAGCAGAAGGUACAAAGG [Mat - Mod of my Eli Mod D48] (puzzle: Exclusion 1) |  |  |  |  | 113 | 
GGACAGGGAGGAUAUACUUGAGGAUCACCCAAGUCGUAUAAUCGAUGAUCACGCCGAAGUAGAAGGCCCAAAAC [EX3 #82] (Eterna round: R97, puzzle: Exclusion 3) | 36.1 |  | 353 |  |  | 
GGACCACAUGAGGAUCACCCAUGUCAGGAUAUGACGGCGUCGGCGAAAGCGGAGGCGGUCAGAAGGGACGGUAA [AK-MS2ROC-r4-exclusion1-10] (Eterna round: R97, puzzle: Exclusion 1) | 72.3 |  | 32.4 |  |  | 
GGACCGAUAGGAUAUGUCGUUGCAUACAUGAGGAUCACCCAUGUGAACCCUUGGUGAACUGCAGAAGGAUUGCGCA [Eternabot (L1) Solution 41] (Eterna round: R97, puzzle: Exclusion 5) | 240 |  | 221 |  |  | 
GGACCGAUUGUUAGGAUAUCGCACGGCUAGCCCAGCGAGAAGGGACAUGAGGAUCACCCAUGUGCGCUUAGCAC [Eternabot (L1) Solution 50] (Eterna round: R97, puzzle: Brourd's mod of Exclusion 4) | 156 |  | 155 |  |  | 
GGACCGUGUGUGAGGAUAUGCUGGUCCUUGGAUCAGCAGAAGGCACAUGAGGAUCACCCAUGUGGUGUCGGUCC [Eli bmx4 4.35] (Eterna round: R97, puzzle: Brourd's mod of Exclusion 4) | 182 |  | 1780 |  |  | 
GGACCUCCUGAGGAUAUUGUAUCACCUGACUGAUAAGAAGGCAGAACAUGAGGAUCACCCAUGUGGGUACUCGG [Bingo-Bango-15] (Eterna round: R97, puzzle: Exclusion 6) | 147 |  | 190 |  |  | 
GGAGAAGUAGGAUAUACAUGAGGAUCACCCAUGUUUUAAUUAAUAUAUGGAAUAGUAAGUAGAAGGAUUAAGUU [A finsh] (Eterna round: R97, puzzle: Exclusion 3) | 35.4 |  | 38.4 |  |  | 
GGAGAGGUAGGAUAUGGACCUUAGAACAUGAGGAUCACCCAUGUAGGACCACAUGAAAUGCCAGAAGGACCAGUCC [AK-MS2ROC-r4-exclusion5-5] (Eterna round: R97, puzzle: Exclusion 5) | 153 |  | 145 |  |  | 
GGAGCAAAUGUCAGGAUAUCGUGGUCGAUAGAUCACGAGAAGGGACAUGAGGAUCACCCAUGUCAGUCCGCUCC [Mat - Exclusion 4 - Eli Mod - D58] (Eterna round: R97, puzzle: Brourd's mod of Exclusion 4) | 22 |  | 14.3 |  |  | 
GGAGCGGAAGGAUAUGCUGCGGGAUUGCAUGGAAAGAAAAUACAUGAGGAUCACCCAUGUAGAAGGUCCGUGAA [Uslequ] (puzzle: Exclusion 2) |  |  |  |  | 24.8 | 
GGAGGAAAGAUAGGAUAUUCGAGGAAGGUGGUGAUAGAGACAUGAGGAUCACCCAUGUAAGGAGGGAAGAAGGGUCGAGGAGGA [AK ExNG2-V2-7] (Eterna round: R96, puzzle: Exclusion NG 2) | 411 | 193 | 142 |  |  | 
GGAGGAACCGGAGGAUAUUGAUUUAAGCGGUUACGCAAGACAUGAGGAUCACCCAUGUGUCCGGACGAGAAGGCCGAAGAAGAA [ExNG2 3rd] (Eterna round: R96, puzzle: Exclusion NG 2) | 43.7 | 30.6 | 38.9 |  |  | 

Sequence | apparent KD of MS2 coat protein (input ligand: FMN 200 uM) [nM] | apparent KD of MS2 coat protein [1] [nM] | apparent KD of MS2 coat protein (input ligand: none) [nM] | apparent KD of MS2 coat protein [2] [nM] | apparent KD of MS2 coat protein [3] [nM] | apparent KD of MS2 coat protein [4] [nM]
GGAGGACGAGCAGGAUAUUUUCACAUGAGGAUCACCCAUGUGUACUCAGGGUAAUCCUCCGCCGAAGAGAAGGGUUCGGAAGAA [Socedi] (Eterna round: R96, puzzle: Exclusion NG 2) | 91 | 23 | 57.1 |  |  | 
GGAGGACGAGCAGGAUAUUUUCACAUGAGGAUCACCCAUGUGUAUUCAGGGUAAUCCUCCGCCGAAAAGAAGGGUUCGGAAGAA [JL ViennaUCT Socedi mod 2] (Eterna round: R96, puzzle: Exclusion NG 2) | 62.9 | 39 | 47.2 |  |  | 
GGAGGGCUAGGAUAUGUAACAGGGAACUUGAGGAUCACCCAAGUGGCCGAAGGCACCCUGGCAGAAGGAGUAAAGA [Inmaislari] (Eterna round: R97, puzzle: Exclusion 5) | 71.6 |  | 50.8 |  |  | 
GGAGUCUUAGGAUAUACAGGUGUGAACAUCCGACGUUUCCAACAUGAGGAUCACCCAUGUAGAAGGAAGACGAG [Eternabot (Original) Solution 5] (Eterna round: R97, puzzle: Exclusion 2) | 824 |  | 783 |  |  | 
GGAGUGUGAGGAUAUAUGGUGAAGGUGAAGAGAGAGGAGGAGUAGAAGGUACAUGAGGAUCACCCAUGUUUAGG [JR_Exclu4_Sub072] (puzzle: Exclusion 4) |  |  |  |  | 38.5 | 
GGAUAAAACUGAGGAUAUGCGGAGAGAGAGAGAGCAGAAGGCAGACAUGAGGAUCACCCAUGUGAGUUCUCGAUAAGAAACACG [Prohibition 57 - Jieux - Exclusion NG 1] (Eterna round: R96, puzzle: Exclusion NG 1) | 107 | 24 | 31.8 |  |  | 
GGAUAUAGGCGAGGAUAUACGCACCACUAACGAGUAGAAGGCGCACAUGAGGAUCACCCAUGUGAGUUCUCAAUAUGAUACACG [Prohibition 70 - Jieux - Exclusion NG 1] (Eterna round: R96, puzzle: Exclusion NG 1) | 14.9 | 14.1 | 18.6 |  |  | 
GGAUCACAUGUCAGGAUAUCCGGGCAGAGUGGCCAGGAGAAGGGACAUGAGGAUCACCCAUGUUGCUUAAAAUU [Bierorerqu] (puzzle: Brourd's mod of Exclusion 4) |  |  |  | 34.8 | 69.9 | 157
GGAUCGAAAGUGAGGAUAUGCUGGUCCUUGGAUCAGCAGAAGGCACAUGAGGAUCACCCAUGUGGGAACGGUCC [Eli bmx4 4.46] (Eterna round: R97, puzzle: Brourd's mod of Exclusion 4) | 1440 |  | 298 |  |  | 
GGAUCGAGUGUGAGGAUAUGCUGGUCCUUGGAUCAGCAGAAGGCACAUGAGGAUCACCCAUGUGACUAAGAUCC [Eli bmx4 4.75] (Eterna round: R97, puzzle: Brourd's mod of Exclusion 4) | 322 |  | 29.8 |  |  | 
GGAUCUAAGGUGAGGAUAUAGACUCCCAAAUGGAUCUAGAAGGCACUUGAGGAUCACCCAAGUAGUCUAGGGAA [Orered] (Eterna round: R97, puzzle: Brourd's mod of Exclusion 4) | 33.6 |  | 16.9 |  |  | 
GGAUCUUGGGUCAGGAUAUGCUGACAGCCAUGUCAGCAGAAGGGACAUGAGGAUCACCCAUGUGCUCGGUUUUG [Magic-19] (puzzle: Brourd's mod of Exclusion 4) |  |  |  |  | 10.1 | 
GGAUCUUGGGUCAGGAUAUGCUGAUAGUUAUGUCAGCAGAAGGGACAUGAGGAUCACCCAUGUGCUCGGUUUUG [Magic-18] (puzzle: Brourd's mod of Exclusion 4) |  |  |  |  | 11.3 | 
GGAUUACGAGGAUAUCGAUUUUAGUACAUGAGGAUCACCCAUGUUGUCCAGGUCUCGUUUCGAGAAGGCGUGAUUC [LRO-Ex5-06] (puzzle: Exclusion 5) |  |  |  |  | 58.4 | 
GGAUUCCAGUGAGGAUAUCCAAAUAAAAGCCAUGGAGAAGGCACAUGAGGAUCACCCAUGUAGGGCAAUAACAGCGAACGCUGC [Erenlege] (Eterna round: R96, puzzle: Exclusion NG 1) | 73 | 43.3 | 30.8 |  |  | 
